Source: the RNAGym collection of RNA variant scans (doi:10.1038/ncomms11558)

B1: mRNA-splicing (parent)
chain: GAUCCAGAUCUAACUUGGGGUGGCUUUGUCUUCUUCUUUUGCCAAUUCCACUAAUUGUUUGGG

Variants of: B1
Test: exon inclusion enrichment score (log2 ratio to wild type); higher = more inclusion; FAS exon 6 minigene, HEK293

Point of comparison: GAUCUAGAUCUAACUUGGGGUGGCUUUGUCUUCUUCUUUUGCCAAUUCCACUAAUUGUUUGGG, “exon inclusion enrichment score” value -4.59. Against it:
- GAUCCAGAUCUAACUUGGGGUGGCCUUGUCUUCUUCUUUUGCCAAUUCCACUAAUUGUUUGGG — higher, 0.429
- GGUCCAGAUCUAACUUGGGGUGGCUUUGUCUUCUUCUUUUGCCAAUUCCACUAAUUGUUUGGG — higher, 0.511
- GUUCCAGAUCUAACUUGGGGUGGCUUUGUCUUCUUCUUUUGCCAAUUCCACUAAUUGUUUGGG — higher, -0.046
- GCUCCAGAUCUAACUUGGGGUGGCUUUGUCUUCUUCUUUUGCCAAUUCCACUAAUUGUUUGGG — higher, -0.31
- GAUCCAGAUCUAACUUAGGGUGGCUUUGUCUUCUUCUUUUGCCAAUUCCACUAAUUGUUUGGG — higher, -2.56
- GAUCCAGAUCUAACUUUGGGUGGCUUUGUCUUCUUCUUUUGCCAAUUCCACUAAUUGUUUGGG — higher, -0.191
- GAUCCAGAUCUAACUUCGGGUGGCUUUGUCUUCUUCUUUUGCCAAUUCCACUAAUUGUUUGGG — higher, -0.067
- GAUCCAGAUCUCACUUGGGGUGGCUUUGUCUUCUUCUUUUGCCAAUUCCACUAAUUGUUUGGG — higher, 0.251
- GAUCCAGAUCUUACUUGGGGUGGCUUUGUCUUCUUCUUUUGCCAAUUCCACUAAUUGUUUGGG — higher, -0.405
- GAUCCAGAUCUGACUUGGGGUGGCUUUGUCUUCUUCUUUUGCCAAUUCCACUAAUUGUUUGGG — higher, 0.431
- GAUCCAGAUCUAACCUGGGGUGGCUUUGUCUUCUUCUUUUGCCAAUUCCACUAAUUGUUUGGG — higher, 0.272
- GAUCCAGAUCUAACGUGGGGUGGCUUUGUCUUCUUCUUUUGCCAAUUCCACUAAUUGUUUGGG — higher, 0.039
- GAUCCAGAUCUAACAUGGGGUGGCUUUGUCUUCUUCUUUUGCCAAUUCCACUAAUUGUUUGGG — higher, -0.077
- GAUCCAGAUCUAACUUGGGGUGCCUUUGUCUUCUUCUUUUGCCAAUUCCACUAAUUGUUUGGG — higher, -0.164
- GAUCCAGAUCUAACUUGGGGUGUCUUUGUCUUCUUCUUUUGCCAAUUCCACUAAUUGUUUGGG — higher, -0.765
- GAUCCAGAUCUAACUUGGGGUGACUUUGUCUUCUUCUUUUGCCAAUUCCACUAAUUGUUUGGG — higher, 0.238
- GAUCCAGAUCAAACUUGGGGUGGCUUUGUCUUCUUCUUUUGCCAAUUCCACUAAUUGUUUGGG — higher, 0.08
- GAUCCAGAUCCAACUUGGGGUGGCUUUGUCUUCUUCUUUUGCCAAUUCCACUAAUUGUUUGGG — higher, 0.559
- GAUCCAGAUCGAACUUGGGGUGGCUUUGUCUUCUUCUUUUGCCAAUUCCACUAAUUGUUUGGG — higher, 0.304
- GAUCCAGAUCUAACUUGGGGUGGCUUUUUCUUCUUCUUUUGCCAAUUCCACUAAUUGUUUGGG — higher, -1.36
- GAUCCAGAUCUAACUUGGGGUGGCUUUAUCUUCUUCUUUUGCCAAUUCCACUAAUUGUUUGGG — higher, -1.07
- GAUCCAGAUCUAACUUGGGGUGGCUUUCUCUUCUUCUUUUGCCAAUUCCACUAAUUGUUUGGG — higher, -1.84
- GAUCCAGGUCUAACUUGGGGUGGCUUUGUCUUCUUCUUUUGCCAAUUCCACUAAUUGUUUGGG — higher, 0.152
- GAUCCAGCUCUAACUUGGGGUGGCUUUGUCUUCUUCUUUUGCCAAUUCCACUAAUUGUUUGGG — higher, 0.321
- GAUCCAGUUCUAACUUGGGGUGGCUUUGUCUUCUUCUUUUGCCAAUUCCACUAAUUGUUUGGG — higher, -0.416
- AAUCCAGAUCUAACUUGGGGUGGCUUUGUCUUCUUCUUUUGCCAAUUCCACUAAUUGUUUGGG — higher, -3.07
- CAUCCAGAUCUAACUUGGGGUGGCUUUGUCUUCUUCUUUUGCCAAUUCCACUAAUUGUUUGGG — higher, -4.23
- UAUCCAGAUCUAACUUGGGGUGGCUUUGUCUUCUUCUUUUGCCAAUUCCACUAAUUGUUUGGG — lower, -5.1
- GAUCCAGAUCUAACUUGGCGUGGCUUUGUCUUCUUCUUUUGCCAAUUCCACUAAUUGUUUGGG — higher, 0.027
- GAUCCAGAUCUAACUUGGUGUGGCUUUGUCUUCUUCUUUUGCCAAUUCCACUAAUUGUUUGGG — higher, 0.032
- GAUCCAGAUCUAACUUGGAGUGGCUUUGUCUUCUUCUUUUGCCAAUUCCACUAAUUGUUUGGG — higher, 0.892
- GAUCCAGAUCUAACUGGGGGUGGCUUUGUCUUCUUCUUUUGCCAAUUCCACUAAUUGUUUGGG — higher, -0.702
- GAUCCAGAUCUAACUCGGGGUGGCUUUGUCUUCUUCUUUUGCCAAUUCCACUAAUUGUUUGGG — higher, 0.271
- GAUCCAGAUCUAACUAGGGGUGGCUUUGUCUUCUUCUUUUGCCAAUUCCACUAAUUGUUUGGG — higher, -0.773
- GAUCCAGAUCUAUCUUGGGGUGGCUUUGUCUUCUUCUUUUGCCAAUUCCACUAAUUGUUUGGG — higher, -0.29
- GAUCCAGAUCUACCUUGGGGUGGCUUUGUCUUCUUCUUUUGCCAAUUCCACUAAUUGUUUGGG — higher, 1.26
- GAUCCAGAUCUAGCUUGGGGUGGCUUUGUCUUCUUCUUUUGCCAAUUCCACUAAUUGUUUGGG — higher, -0.194
- GAACCAGAUCUAACUUGGGGUGGCUUUGUCUUCUUCUUUUGCCAAUUCCACUAAUUGUUUGGG — higher, -0.683
- GAGCCAGAUCUAACUUGGGGUGGCUUUGUCUUCUUCUUUUGCCAAUUCCACUAAUUGUUUGGG — higher, -0.136
- GACCCAGAUCUAACUUGGGGUGGCUUUGUCUUCUUCUUUUGCCAAUUCCACUAAUUGUUUGGG — higher, -0.472
- GAUCAAGAUCUAACUUGGGGUGGCUUUGUCUUCUUCUUUUGCCAAUUCCACUAAUUGUUUGGG — higher, -0.066
- GAUCGAGAUCUAACUUGGGGUGGCUUUGUCUUCUUCUUUUGCCAAUUCCACUAAUUGUUUGGG — higher, -0.076
